Target: HAKAI;WTAP;VIRMA;ZC3H13 (1106-1668);METTL3;METTL14 (Homo sapiens;Homo sapiens;Homo …, UniProt Q75N03;Q15007;Q69YN4;Q5T200;Q86U44;Q9HCE5 …, |||||)
Assay: s4U UV crosslinking MS; sites METTL3 F321; VIRMA P140, E1597, F1706; EMSA: 5 nM FAM-RNA, 20 mM HEPES pH 7.5, 100 mM KCl, 10% glycerol, 1 mM DTT, 25 C, 20 min; 8% native PAGE in 1x TBE at 4 C; Kd from loss of free RNA, Hill fit, n
Settings: protein: recombinant;recombinant;recombinant;recombinant;recombinant;recombinant, tags: untagged;N-6xHis;N-6xHis;N-Twin-Strep;N-GST-TEV, removed;N-6xHis-TEV

B1: s4U-ACTB-1 RNA (ssRNA)
RNA: GGCCCCUCCAUCGUCCACCGCAAAUGCUUCUAGGCGGACUAUGACUUAGUUGCGUUACACCCUUUCUUGACAAAACCUAACUUGCACAGAAAACA
modifications: 4-thiouridine (s4U); positions not given
Question: Does B1 bind?
Answer: Result: binds

Source: PMC9652331, “Cryo-EM structures of human m6A writer complexes”
